Test results reported in article doi:10.1101/854158 (bioRxiv, 2019).

T1: FANCC (human, UniProt Q00597 1-558)
T1 sequence: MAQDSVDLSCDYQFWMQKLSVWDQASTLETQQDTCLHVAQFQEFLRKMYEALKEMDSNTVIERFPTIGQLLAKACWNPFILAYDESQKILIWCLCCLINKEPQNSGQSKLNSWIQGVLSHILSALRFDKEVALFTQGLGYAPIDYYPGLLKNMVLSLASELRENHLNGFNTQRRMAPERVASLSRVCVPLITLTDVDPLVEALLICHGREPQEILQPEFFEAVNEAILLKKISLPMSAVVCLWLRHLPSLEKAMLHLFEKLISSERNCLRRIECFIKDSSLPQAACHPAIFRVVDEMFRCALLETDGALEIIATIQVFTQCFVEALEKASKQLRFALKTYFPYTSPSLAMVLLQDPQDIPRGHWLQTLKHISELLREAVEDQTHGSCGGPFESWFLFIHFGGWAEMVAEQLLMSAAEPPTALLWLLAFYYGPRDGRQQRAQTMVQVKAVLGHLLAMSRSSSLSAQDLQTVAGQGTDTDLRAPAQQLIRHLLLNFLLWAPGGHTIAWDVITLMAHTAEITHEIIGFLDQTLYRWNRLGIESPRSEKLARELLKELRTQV

B1: FANCE (natural protein)
chain: MATPDAGLPGAEGVEPAPWAQLEAPARLLLQALQAGPEGARRGLGVLRALGSRGWEPFDWGRLLEALCREEPVVQGPDGRLELKPLLLRLPRICQRNLMSLLMAVRPSLPESGLLSVLQIAQQDLAPDPDAWLRALGELLRRDLGVGTSMEGASPLSERCQRQLQSLCRGLGLGGRRLKSPQAPDPEEEENRDSQQPGKRRKDSEEEAASPEGKRVPKRLRCWEEEEDHEKERPEHKSLESLADGGSASPIKDQPVMAVKTGEDGSNLDDAKGLAESLELPKAIQDQLPRLQQLLKTLEEGLEGLEDAPPVELQLLHECSPSQMDLLCAQLQLPQLSDLGLLRLCTWLLALSPDLSLSNATVLTRSLFLGRILSLTSSASRLLTTALTSFCAKYTYPVCSALLDPVLQAPGTGPAQTELLCCLVKMESLEPDAQVLMLGQILELPWKEETFLVLQSLLERQVEMTPEKFSVLMEKLCKKGLAATTSMAYAKLMLTVMTKYQANITETQRLGLAMALEPNTTFLRKSLKAALKHLGP
B2: FAAP100 (natural protein)
chain: MAGAAPRVRYLAGFCCPLGGLAAGKPRVLCHEAEVFLSTGSELVYVYDQEGGLLTAAFRFPDQVWHLELLAPRRLLYALCARRGLYCLSLDHPGRSRSTSQDDRDSEDGDQPSPVIPVDPDACILPDAALCAFTLLDSVLVTLVQGPARWKMQLFEQPCPGEDPRPGGQIGEVELSSYTPPAGVPGKPAAPHFLPVLCSVSPSGSRVPHDLLGGSGGFTLEDALFGLLFGADATLLQSPVVLCGLPDGQLCCVILKALVTSRSAPGDPNALVKILHHLEEPVIFIGALKTEPQAAEAAENFLPDEDVHCDCLVAFGHHGRMLAIKASWDESGKLVPELREYCLPGPVLCAACGGGGRVYHSTPSDLCVVDLSRGSTPLGPEQPEEGPGGLPPMLCPASLNICSVVSLSASPRTHEGGTKLLALSAKGRLMTCSLDLDSEMPGPARMTTESAGQKIKELLSGIGNISERVSFLKKAVDQRNKALTSLNEAMNVSCALLSSGTGPRPISCTTSTTWSRLQTQDVLMATCVLENSSSFSLDQGWTLCIQVLTSSCALDLDSACSAITYTIPVDQLGPGARREVTLPLGPGENGGLDLPVTVSCTLFYSLREVVGGALAPSDSEDPFLDECPSDVLPEQEGVCLPLSRHTVDMLQCLRFPGLAPPHTRAPSPLGPTRDPVATFLETCREPGSQPAGPASLRAEYLPPSVASIKVSAELLRAALKDGHSGVPLCCATLQWLLAENAAVDVVRARALSSIQGVAPDGANVHLIVREVAMTDLCPAGPIQAVEIQVESSSLADICRAHHAVVGRMQTMVTEQATQGSSAPDLRVQYLRQIHANHETLLREVQTLRDRLCTEDEASSCATAQRLLQVYRQLRHPSLILL
B3: FANCA (natural protein)
chain: MSDSWVPNSASGQDPGGRRRAWAELLAGRVKREKYNPERAQKLKESAVRLLRSHQDLNALLLEVEGPLCKKLSLSKVIDCDSSEAYANHSSSFIGSALQDQASRLGVPVGILSAGMVASSVGQICTAPAETSHPVLLTVEQRKKLSSLLEFAQYLLAHSMFSRLSFCQELWKIQSSLLLEAVWHLHVQGIVSLQELLESHPDMHAVGSWLFRNLCCLCEQMEASCQHADVARAMLSDFVQMFVLRGFQKNSDLRRTVEPEKMPQVTVDVLQRMLIFALDALAAGVQEESSTHKIVRCWFGVFSGHTLGSVISTDPLKRFFSHTLTQILTHSPVLKASDAVQMQREWSFARTHPLLTSLYRRLFVMLSAEELVGHLQEVLETQEVHWQRVLSFVSALVVCFPEAQQLLEDWVARLMAQAFESCQLDSMVTAFLVVRQAALEGPSAFLSYADWFKASFGSTRGYHGCSKKALVFLFTFLSELVPFESPRYLQVHILHPPLVPGKYRSLLTDYISLAKTRLADLKVSIENMGLYEDLSSAGDITEPHSQALQDVEKAIMVFEHTGNIPVTVMEASIFRRPYYVSHFLPALLTPRVLPKVPDSRVAFIESLKRADKIPPSLYSTYCQACSAAEEKPEDAALGVRAEPNSAEEPLGQLTAALGELRASMTDPSQRDVISAQVAVISERLRAVLGHNEDDSSVEISKIQLSINTPRLEPREHMAVDLLLTSFCQNLMAASSVAPPERQGPWAALFVRTMCGRVLPAVLTRLCQLLRHQGPSLSAPHVLGLAALAVHLGESRSALPEVDVGPPAPGAGLPVPALFDSLLTCRTRDSLFFCLKFCTAAISYSLCKFSSQSRDTLCSCLSPGLIKKFQFLMFRLFSEARQPLSEEDVASLSWRPLHLPSADWQRAALSLWTHRTFREVLKEEDVHLTYQDWLHLELEIQPEADALSDTERQDFHQWAIHEHFLPESSASGGCDGDLQAACTILVNALMDFHQSSRSYDHSENSDLVFGGRTGNEDIISRLQEMVADLELQQDLIVPLGHTPSQEHFLFEIFRRRLQALTSGWSVAASLQRQRELLMYKRILLRLPSSVLCGSSFQAEQPITARCEQFFHLVNSEMRNFCSHGGALTQDITAHFFRGLLNACLRSRDPSLMVDFILAKCQTKCPLILTSALVWWPSLEPVLLCRWRRHCQSPLPRELQKLQEGRQFASDFLSPEAASPAPNPDWLSAAALHFAIQQVREENIRKQLKKLDCEREELLVFLFFFSLMGLLSSHLTSNSTTDLPKAFHVCAAILECLEKRKISWLALFQLTESDLRLGRLLLRVAPDQHTRLLPFAFYSLLSYFHEDAAIREEAFLHVAVDMYLKLVQLFVAGDTSTVSPPAGRSLELKGQGNPVELITKARLFLLQLIPRCPKKSFSHVAELLADRGDCDPEVSAALQSRQQAAPDADLSQEPHLF
B4: FANCB (natural protein)
chain: MTSKQAMSSNEQERLLCYNGEVLVFQLSKGNFADKEPTKTPILHVRRMVFDRGTKVFVQKSTGFFTIKEENSHLKIMCCNCVSDFRTGINLPYIVIEKNKKNNVFEYFLLILHSTNKFEMRLSFKLGYEMKDGLRVLNGPLILWRHVKAFFFISSQTGKVVSVSGNFSSIQWAGEIENLGMVLLGLKECCLSEEECTQEPSKSDYAIWNTKFCVYSLESQEVLSDIYIIPPAYSSVVTYVHICATEIIKNQLRISLIALTRKNQLISFQNGTPKNVCQLPFGDPCAVQLMDSGGGNLFFVVSFISNNACAVWKESFQVAAKWEKLSLVLIDDFIGSGTEQVLLLFKDSLNSDCLTSFKITDLGKINYSSEPSDCNEDDLFEDKQENRYLVVPPLETGLKVCFSSFRELRQHLLLKEKIISKSYKALINLVQGKDDNTSSAEEKECLVPLCGEEENSVHILDEKLSDNFQDSEQLVEKIWYRVIDDSLVVGVKTTSSLKLSLNDVTLSLLMDQAHDSRFRLLKCQNRVIKLSTNPFPAPYLMPCEIGLEAKRVTLTPDSKKEESFVCEHPSKKECVQIITAVTSLSPLLTFSKFCCTVLLQIMERESGNCPKDRYVVCGRVFLSLEDLSTGKYLLTFPKKKPIEHMEDLFALLAAFHKSCFQITSPGYALNSMKVWLLEHMKCEIIKEFPEVYFCERPGSFYGTLFTWKQRTPFEGILIIYSRNQTVMFQCLHNLIRILPINCFLKNLKSGSENFLIDNMAFTLEKELVTLSSLSSAIAKHESNFMQRCEVSKGKSSVVAAALSDRRENIHPYRKELQREKKKMLQTNLKVSGALYREITLKVAEVQLKSDFAAQKLSNL

How the values were obtained:
Assay in all cases: cryo-EM structure
FANCC = target: T1, FANCC
FANCA = target: B3
cryo-EM structure = target: the molecule itself

B1
binding result (FANCC): binds

B2
binding result (FANCA): binds

B3
stoichiometry N (cryo-EM structure): 2

B4
binding result (FANCA): binds
binding result (cryo-EM structure): binds
